Experimental data taken from paper PMC7210271, “Structural basis for impairment of DNA methylation by the DNMT3A R882H mutation” (Nature Communications, 2020).

Target: the molecule itself
Assay: crystal structure; DNMT3A(628-912, WT or R882H)-DNMT3L(178-386) tetramer covalently bound to 25-mer zebularine DNA duplex (CGA, CGT or CAG) and SAH; crystals at 4 °C from 0.1 M sodium citrate pH 4.2 or 4.4, PEG8000

B1: DNMT3A R882H mutant, MTase (C-terminal) domain, residues 628-912 (domain or fragment, UniProt Q9Y6K1 628-912, looked up)
chain: AEKRKPIRVLSLFDGIATGLLVLKDLGIQVDRYIASEVCEDSITVGMVRHQGKIMYVGDVRSVTQKHIQEWGPFDLVIGGSPCNDLSIVNPARKGLYEGTGRLFFEFYRLLHDARPKEGDDRPFFWLFENVVAMGVSDKRDISRFLESNPVMIDAKEVSAAHRARYFWGNLPGMNRPLASTVNDKLELQECLEHGRIAKFSKVRTITTRSNSIKQGKDQHFPVFMNEKEDILWCTEMERVFGFPVHYTDVSNMSHLARQRLLGRSWSVPVIRHLFAPLKEYFACV
modifications: catalytic cysteine C710 covalently linked to zebularine of the DNA (in the crystallised complexes)
notes: DNMT3A, MTase domain (C-terminal domain), residues 628-912, with the AML hotspot mutation R882H; R882H is a mutation found in acute myeloid leukemia patients; it was removed by ULP1; also called R882H-mutated DNMT3A; R882H DNMT3A; source: E. coli BL21 DE3 (RIL), co-expressed with DNMT3L, purified (Ni-NTA, Heparin, SEC); not shown: His6-SUMO, N-terminal, cleaved
B1: binds.
